Measurements: the nanobody polyreactivity screen of Harvey et al. (2022)

Test: yeast display, Sf9 membrane polyspecificity reagent, FACS + sequencing; frameworks hold sequencing errors
Summary of the method: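 Galactose induction of a Saccharomyces cerevisiae BJ5465 synthetic nanobody display library ran 36–48 hours. The cells were then stained for 1 hour at 4 °C with 10% biotinylated, detergent-solubilized Sf9 membrane reagent, pulled down on streptavidin microbeads and FACS-sorted into low and high (top ~1%) gates on expression and reagent-binding fluorescence. Labels for polyreactivity follow the gate of origin.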
With “QVQLVESGGGLVQAGGSLRLSCAASGSISYVYAMGWYRQAPGKERELFAAISYSDGSTYYADSVKGRFTISRDNAKNTVYLQMISLKPEDTAVYYCAADAVYPFPYYWEYYYWGQGTQVTVSS” the “polyreactivity (PSR sort gate)” value was “high polyreactivity”.
In the case of “QVQLVESGGGLVQAGGSLRLSCAASGIIFSTYAMGWYRQAPGKERELVAAISSGGRTYYADSVKGRFTISRDNAKNTVYLQMNSLKPEDTAVYYCAASYYRYYSGWTPYYYWGQGTQVTVSS”, the “polyreactivity (PSR sort gate)” value is reported as “high polyreactivity”.
For “QVQLVESGGGLVQAGGSLRLSCAASGFTLKYYAMGWYRQAPGKERELVAAITSSGVSTYYADSVKGRFTISRDNAKNTVYLQMNSLKPEDTAVYYCAALYWYSRSSWDYDYWGQGTQVTVSS”, the “polyreactivity (PSR sort gate)” value was “high polyreactivity”.
For “QVQLVESGGGLLQAGGSLRLSCAASGFTIYGYGMGWYRQAPGKERELVAGITARGSSTYYADSVKGRFTISRDNAKNTVYLQMNSLKPEDTAVYYCNSVGARVASATGMEYWGQGTQVTVSS”, the “polyreactivity (PSR sort gate)” value was “high polyreactivity”.
For “QVQLVESGGGLVQAGGSLRLSCAASGFNFVRYAMGWYRQAPRKERELVAAITRRGGSTHYADSVKGRFTISRDNAKNTVYLQMNSLKPEDTAVYYCGAGRQYYYLDRFPRVQGDYWGQATQVTVSS”, the “polyreactivity (PSR sort gate)” value was “high polyreactivity”.
For “QVQLVESGGGLVQAGGSLRLSCPASGRIIGGNAMGWYRQAPGKEREFVAAIRASGGSTHYADSVKGRFTISRDNAKNTVYLQMNSLKPEDTAVYDCNALSRNTHLYDYWGQGTQVTVSS”, the “polyreactivity (PSR sort gate)” value was “high polyreactivity”.
For “QVQLVESGGGLVQAGGSLRLSCAASGFTFYQYAMGWSRPAPGKERELVAGISRGGRTYYADSVKGRFTISRDNANNTVYLQMNSLKPEDTAVYYCAARYFYYKNVYAYRTYYYWGQGTQVTVSS”, the “polyreactivity (PSR sort gate)” value was “high polyreactivity”.
In the case of “QVQLVESGGGLVQAGGSLGLSCAAYGSIFVGNAMGWYRQAPGNERELVAAICRSGGITYYADSVKGRFTISRDNAKNTVYLQMNSLKPEDTAVYYCAARHRYYYQYRSDYWGQGTQVTVSS”, the “polyreactivity (PSR sort gate)” value is reported as “high polyreactivity”.
In the case of “QVQLVESGGGLVQAGGSLRLICAASGRSFIGNAMGWYSQAPGKDREFDAAISRRGGSTYYADSVKGRFTISRDNEKNTVYLQMNSLKPEDTAVYYCAAGQTTTGILTYYYWGQGTQVTGSS”, the “polyreactivity (PSR sort gate)” value is reported as “high polyreactivity”.
With “QVQLVESGGGLVQAGGSLRLSCAASGLIYSYNAMGWTRQAPGKERELVAAISRSGGTPYYADSVKGRFTISRDNANNTVYLQMNSLKPEDTEVYYCAAEIRFLSWEYDYWGQGTQVSVSS” the “polyreactivity (PSR sort gate)” value was “high polyreactivity”.
For “QVQLVESGGGLVQAGGSHRFSCGASGSTSTYYAMGCYRQAPGTERELVAAISSGGSTNYADSVKGRFTISRDNAKNTVYLKMNSLKPEETAVYYCATDSGDGEGDYWGQGTQVTVSS”, the “polyreactivity (PSR sort gate)” value was “low polyreactivity”.
For “QVQHVDSGGGLVQAGGSLRLSCAASGSTFFTYAMGWYRQEPGKERELVAAISQSSVRTHYADSVKGRFTISRDNAKNTVYLQMNSLKPEDTAVYYCAARVYGRQYPGAPYYYWGQGTQVTVSS”, the “polyreactivity (PSR sort gate)” value was “high polyreactivity”.
With “QGQLVESGGGLVQAGGSLRLSCAASGSTFYIYAMGWYRQAPGKERELVARISGSGGSTYYADSVKGRFTISRDNAKNTVYLQMNSLKPEDTAVYYCAADDIYKYYQYYAFPYYRYDYWGQGTQVTVSS” the “polyreactivity (PSR sort gate)” value was “low polyreactivity”.
For “QVQLVESGGGLVQAGGSLRLSCAASGSIFYPYAMGWYRQAPGKERELVAGITYRAGSTYYADSVKGRFTISRDNAKNTVYLQMNSLKPEDTAVYYCAASQSYAFDWGQGTQVTVSS”, the “polyreactivity (PSR sort gate)” value was “high polyreactivity”.
In the case of “QVQLEESGGGLVQAGGSLRLSCAASGFIFSWYVMGWYRQAPGKERELVAAISQSGGDTYYADSVKGRFTISRDNAKNTVYLQMNSLKPEDTAVYYCAVGRVGRFYYWGQGTQVTVSS”, the “polyreactivity (PSR sort gate)” value is reported as “high polyreactivity”.
In the case of “QVQLVESGGGLVQAGGSLRLSCAASGLTLYTYAMGWYREAPGKESELVAAISKNGGRTYYADSVKGRFTISRDNAKNTVYLQMNSLKPEDTAVYYCAARARVGTVTFDFWGQGTQVTVSS”, the “polyreactivity (PSR sort gate)” value is reported as “high polyreactivity”.
For “QVQLVESGGGLVQAGGSLRLSCAASGSIFYKYAMGWYRQAPGKERELVAAISGSGGRTYYADSVKGRFTISRDNAKNTVYLQMNSLKPEDTAVYYCAAAKRTWRSDYWGQGTQVTVSS”, the “polyreactivity (PSR sort gate)” value was “high polyreactivity”.
With “QVQLVESGGGLVQAGGSLRLSCAASGRIFTGYAMGWYRQAPGTERELVAAISDGGSTNYADSVKGRFTISRDNAKNTVYLQMNSLKPEDTAVYYCAADGHSSDKYDYWGQGTQVTVSS” the “polyreactivity (PSR sort gate)” value was “low polyreactivity”.
In the case of “QVQLVESGGGLVQAGGSLRLSCAASGSTFRHYAMGWYRQAPGKERELVAVISWGGTSTYYADSVKGRFTISRDNAKNTVYLQMNSLKPEDTAVYYCNKAYFPIFKGYEMYYWGQGTQVTVSS”, the “polyreactivity (PSR sort gate)” value is reported as “low polyreactivity”.
For “QVQLVESGGGLVQAGGSLRLSCAASGSTFAYYTMGWYRQAPGKERELVAAITSGGRTTYADSVKGRFTISRDNAKNTVYLQMNSLKPEDTAVYYCAKGRKPGYYYWGQGTQVTVSS”, the “polyreactivity (PSR sort gate)” value was “high polyreactivity”.
With “QVQLVESGGGLVQAGGSLRLSCAASGRIFRRNAMGWYRQAPGKERELVAAITSNGGRTYYADSVKGRFTISRDNAKNTVYLQMNSLKPEDTAVYYCAADTYDNDYYYWGQGTQVTVSS” the “polyreactivity (PSR sort gate)” value was “high polyreactivity”.
For “QVQLVESGGGLVQAGGSLRLSCAASGFIFVLYAKGWYRQAPGQERELVAAISRTGGSTYYADSVKGRFTISRDNAKNTVYLQMNSLKPEDTAVYYCAVSRSKTYDYWGQGTQVTVSS”, the “polyreactivity (PSR sort gate)” value was “high polyreactivity”.
For “QVQLVDSGGGLVQASGSLRLSCAASGSIFLFYAMGGYRQAPGKERQVVAAITSGGRTYYADSVKGRFTISRDNAKNTVYLQMNSLKPEDTAVYYCNAVRFYSIGLGQDDYWGQGTQVTVSS”, the “polyreactivity (PSR sort gate)” value was “low polyreactivity”.
In the case of “QVQLVESGGGLVQAGGSLRLSCAASGNTFSYYAMGRYRQSPGKEREFVAAIRKSGASTYYADTVKGRFTISRDNAKNTVYLQINSLKPEDTALYYCAADGQVSYALGFDYWGQGTQVTVSS”, the “polyreactivity (PSR sort gate)” value is reported as “high polyreactivity”.
In the case of “QVQLVESGGGLVQAGGSLRLSCAASGRTFFGYARGWYRQAPGKEREFVARISWRGTSTTYADSVKGRFTISRDNAKNTVYLEMNSLKPEDTAVYYCAASPYGLRVYFTVGYWGQGTQVTVSS”, the “polyreactivity (PSR sort gate)” value is reported as “high polyreactivity”.
For “QVQHVESGGGLVQAGGSLRLSCAASGSIFPVYAMRWYRQAPGKEREFVASIRWRGGSTSYADSVKGRFTISRDNAKNTVYLQMNSLKPEDTAVYYCNAVYYSWAQSARFDYWGQGTQVTVSS”, the “polyreactivity (PSR sort gate)” value was “low polyreactivity”.
With “QVQLVESGGGLVQAGGSLRLIFAASGSIFPDYAMGWYITAPGKERELVAAISRSGGRTSYADSVKGRFTISRDNAKNTVFLQMNSLKPEDTAVYYCNVASRQGSTYDYWGQGTQVTVSS” the “polyreactivity (PSR sort gate)” value was “high polyreactivity”.
For “QVQLVESGGGLVQAGGSLRLSCAASGNIFTGNAMGWYRQAPGKERELVAAISSGGGSTYYADSVKGRFTISRDNAKNTVYLQMNSLKPEDTAVYYCAASRVRYSYGYPYYYWGQGTQVTVSS”, the “polyreactivity (PSR sort gate)” value was “high polyreactivity”.
With “QVQLVESGGGLVQAGGSLRLSCAASGRIFRYYAMGWYRQAPGKERELVAAITSDGRTYYADSVKGRFTISRDNAKNTVYLQMNSLKPEDTAVYYCAADHHSYRYGGYYYWGQGTQVTVSS” the “polyreactivity (PSR sort gate)” value was “low polyreactivity”.
For “QVQLVESGGGLVQAGGSLRLSCAASGRIFVYYAMGGYRQAPGKERELVATISTGGSTYYADSVKGRFTISRDNAKNTVYLQMNSLKPEDTAVYYCASDNVNLYLAYYYKGDYWGQGTQVTVSS”, the “polyreactivity (PSR sort gate)” value was “low polyreactivity”.
In the case of “QVQLVESGVALVQAGGSLRLSCAASGSILYPYAMGWYRQAPGKERELVAAITKTDGSTYYADSVKWRFTISRDNAKNTVYLQMNSLTPEDTAVYCCNAKWTLRWYFPYWSEYDYWGQGTQVTVSS”, the “polyreactivity (PSR sort gate)” value is reported as “low polyreactivity”.
In the case of “QVQLVESGGGLVQAGGSLRLSCAASGSIFRPYAMGRYRQAPGKERELVAAISWRSGRTYYADSVKGRFTISRDNAKNTVYLQMNSLKPEDTAVYYCAADLASYAYRYDYWGQGTQVTVSS”, the “polyreactivity (PSR sort gate)” value is reported as “high polyreactivity”.
For “QVQLVESCGGLVQAGGSLRLRCAASRSIFDSYAMGWYRQAPGKERELVASISYRGGSTYYADSVKGRFTISRDIAKNTVYLQMNSLKPEDTAVYYCAATPGYHYRSWRYYYWGQGNQVTVSS”, the “polyreactivity (PSR sort gate)” value was “high polyreactivity”.
For “QVQLVESGGGLVQAGGSLRLTCAASGSTFLYYAMGWSREGPGNERELVATITHGGATNYADSVKGRFTISRDNAKNTVYLELNSLIPDDTAVYYCATDSYHYSYGYASLPEYDYWGHGTQVTVSS”, the “polyreactivity (PSR sort gate)” value was “low polyreactivity”.
In the case of “QVQLVESGGGLVQAGGSLRLSCAASGRTFYDNAMGWDRQAPGKARELVAAITQSGGRTYYADSVKGRFTISRDNAKNTGYLQMNSLKPADTAVYYCAASWPNYLYEYWGQGTQVTVSS”, the “polyreactivity (PSR sort gate)” value is reported as “high polyreactivity”.
For “QVQLVESGGGLVQAGGSLRLSCAASGRTFTHYAMGWYRQAPGKERELVASISDGGRTHYADSVKGRFTISRDNAKNTVYLQMNSLKPEDTAVYYCATDRYPTRRYDYWGQGTQVTVSS”, the “polyreactivity (PSR sort gate)” value was “low polyreactivity”.
For “QVQLVESGGGLVQAGGSLRLSCAASVRTFEPNAMGWYRQAPGKERELVAAISSSDGSTYYADSVKGRFTISRDNAKNTVYLQMNSLKPEDTAVYYCAADAGYLYDWPYNYYYWGQGTQVTVSS”, the “polyreactivity (PSR sort gate)” value was “low polyreactivity”.
In the case of “QVQLVESGGGLVQAGGSLRLSCAASGFTFTRYGMGWYRQAPGKERELVAGISSGGSTNYADSVKGRFTISRDNAKNTVYLQRNSLKPEDTAVYYCAARAKRYNVRFDYWGQGTQVTVSS”, the “polyreactivity (PSR sort gate)” value is reported as “high polyreactivity”.
For “QVQLVESGGGLVQAGGSLRLSCAASGRIFGQNAMGWYRQAPGKERELVAAITWNGGRTYYADSVKGRFTISRDNAKNTVYLQMNSLKPEDTAVYYCNADGKHRLRDYWGQGTQVTVSS”, the “polyreactivity (PSR sort gate)” value was “high polyreactivity”.
With “QVQLVESGGGLVQAGGSLRLSCAASGFTLYWNAMGWYRPAPGTERELVAGITNGGDTYYADSVKGRFTISRDNAKNTVYLQMNSLKPEDTAVYYCNVDPVYYRFHSSLSVIPGYDYWGQGTQVTVSS” the “polyreactivity (PSR sort gate)” value was “low polyreactivity”.
In the case of “QVQLVESGGGLVQAGGSLRLSCAASGSIFRYYAMGWYRQAPGKERELVATISSSGGTTYYADSVKGRFTISRDNAKNTVYLQMNSLKPEDTAVYYCAALWTWHVSYPVHEYDYWGQGTQVTVSS”, the “polyreactivity (PSR sort gate)” value is reported as “low polyreactivity”.
For “QVQLVESGGGLVQAGGSLRLSCAASGIIFWSYTMGWYRQAPGKEREFVASLRKSGGSTYYADSVKGRFTISRDNSKNTVYLQMNSLKPEDTAVYYCAAVYRRYLGGGYDYWGQGTQVTVSS”, the “polyreactivity (PSR sort gate)” value was “high polyreactivity”.
For “QVQLVESGGGLVQAGGSLRLSCAASGFIFRSYAMGWYRQAPGKERELVAVISRRGVNTHYADSVKGRFTISRDNAKNTVYLQMNSLKPEDTAVYYCAKGLTALGDYWGQGTQVTVSS”, the “polyreactivity (PSR sort gate)” value was “high polyreactivity”.
